Measurements taken from PMC5031558, “SPATA2 Links CYLD to LUBAC, Activates CYLD, and Controls LUBAC Signaling” (Molecular Cell, 2016).
Where a chain is given by its changes, count along the chain named. Names may count otherwise.

T1: HOIP PUB domain (aa 1–184) (UniProt Q96EP0 1-184)
T1 construct: HOIP (RNF31), PUB domain, residues 1-184; The construct used in the pull-down, NMR and FP experiments is called only 'HOIP PUB domain'; also called HOIP PUB domain (1–184); source: E. coli, purified (as described in Elliott et al., 2014)
T1 sequence (looked up): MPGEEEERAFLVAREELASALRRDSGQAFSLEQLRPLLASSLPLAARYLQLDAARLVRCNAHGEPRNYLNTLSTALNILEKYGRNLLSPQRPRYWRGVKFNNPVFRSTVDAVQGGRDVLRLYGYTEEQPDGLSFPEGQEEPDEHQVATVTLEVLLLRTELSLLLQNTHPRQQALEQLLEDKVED

T2: HOIP PUB domain (HOIP 5–180, crystal structure) (UniProt Q96EP0 5-180)
T2 construct: 5–180 may be the modelled residues of the 1–184 construct; source: E. coli, purified (as described in Elliott et al., 2014)
T2 sequence (looked up): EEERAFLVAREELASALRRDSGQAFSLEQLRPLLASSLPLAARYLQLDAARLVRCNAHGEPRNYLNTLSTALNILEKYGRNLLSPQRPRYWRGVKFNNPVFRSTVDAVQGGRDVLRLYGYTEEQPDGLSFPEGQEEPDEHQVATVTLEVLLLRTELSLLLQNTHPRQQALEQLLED

B1: CYLD USP domain (aa 583–956) (domain or fragment, human, UniProt Q9NQC7 583-956, looked up)
chain: GLEIMIGKKKGIQGHYNSCYLDSTLFCLFAFSSVLDTVLLRPKEKNDVEYYSETQELLRTEIVNPLRIYGYVCATKIMKLRKILEKVEAASGFTSEEKDPEEFLNILFHHILRVEPLLKIRSAGQKVQDCYFYQIFMEKNEKVGVPTIQQLLEWSFINSNLKFAEAPSCLIIQMPRFGKDFKLFKKIFPSLELNITDLLEDTPRQCRICGGLAMYECRECYDDPDISAGKIKQFCKTCNTQVHLHPKRLNHKYNPVSLPKDLPDWDWRHGCIPCQNMELFAVLCIETSHYVAFVKYGKDDSAWLFFDSMADRDGGQNGFNIPQVTPCPEVGEYLKMSLEDLHSLDSRRIQGCARRLLCDAYMCMYQSPTMSLYK
notes: Dimer by SEC-MALS (86 kDa); also called intact CYLD USP domain; source: Sf9 insect cells, purified (as described in Komander et al., 2008)
B2: CYLD USP domain I790D (domain or fragment, human)
chain: B1 chain with I208D
notes: CYLD, human, USP domain with I790D, 44 kDa observed; Monomer by SEC-MALS; Limits of the mutant are not restated; parent is m1; also called CYLD I790D; I790D dimerization mutant; source: Sf9 insect cells, purified (as described in Komander et al., 2008)
B3: SPATA2 PUB domain (aa 1–241) (domain or fragment, UniProt Q9UM82 1-241, looked up)
chain: MGKPSSMDTKFKDDLFRKYVQFHESKVDTTTSRQRPGSDECLRVAASTLLSLHKVDPFYRFRLIQFYEVVESSLRSLSSSSLRALHGAFSMLETVGINLFLYPWKKEFRSIKTYTGPFVYYVKSTLLEEDIRAILSCMGYTPELGTAYKLRELVETLQVKMVSFELFLAKVECEQMLEIHSQVKDKGYSELDIVSERKSSAEDVRGCSDALRRRAEGREHLTASMSRVALQKSASERAAKD
notes: Spermatogenesis-associated protein 2 (SPATA2), PUB domain, residues 1-241, 27.6 kDa as printed; Monomer by SEC-MALS; also called SPATA2 PUB domain (1–241); source: E. coli, purified (as described in Elliott et al., 2014)
B4: CYLD B-box domain (aa 778–855) (domain or fragment, human, UniProt Q9NQC7 778-855, looked up)
chain: TDLLEDTPRQCRICGGLAMYECRECYDDPDISAGKIKQFCKTCNTQVHLHPKRLNHKYNPVSLPKDLPDWDWRHGCIP
modifications: 15N-labelled in the NMR titration
notes: CYLD, human, B-box domain, residues 778-855, 9.1 kDa as printed; Dimer by SEC-MALS (17.1 kDa); also called isolated B-box domain
B5: SPATA2 (aa 7–356) (domain or fragment, UniProt Q9UM82 7-356, looked up)
chain: MDTKFKDDLFRKYVQFHESKVDTTTSRQRPGSDECLRVAASTLLSLHKVDPFYRFRLIQFYEVVESSLRSLSSSSLRALHGAFSMLETVGINLFLYPWKKEFRSIKTYTGPFVYYVKSTLLEEDIRAILSCMGYTPELGTAYKLRELVETLQVKMVSFELFLAKVECEQMLEIHSQVKDKGYSELDIVSERKSSAEDVRGCSDALRRRAEGREHLTASMSRVALQKSASERAAKDYYKPRVTKPSRSVDAYDSYWESRKPPLKASLSLRKEPVATDVGDDLKDEIIRPSPSLLTMASSPHGSPDVLPPASPSNGPALLRGTYFSTQDDVDLYTDSEPRATYRRQDALRPD
notes: also called extended SPATA2 fragment; source: E. coli, purified (as described in Elliott et al., 2014)
B6: SPATA2 PIM peptide (aa 334–344) (peptide, UniProt Q9UM82 334-344, looked up)
peptide: DVDLYTDSEPR
notes: SPATA2, peptide spanning the PIM (Asp-Leu-Tyr-Thr, residues 336-339), residues 334-344; also called SPATA2 334–344

What was measured:
[1] = target: B3; assay: cell-based or functional assay
SPATA2 (aa 7–356) = target: B5; assay: SEC-MALS; Superdex 200 column; purified SPATA2 (aa 7–356), HOIP PUB (aa 1–184) and CYLD alone and mixed; conditions: both partners purified
[2] = target: the molecule itself; assay: SEC-MALS; Superdex 75 size-exclusion column; CYLD and SPATA2 PUB variants alone and mixed
[3] = target: B3; assay: as above; conditions: both partners purified
CYLD USP domain I790D = target: B2; assay: SPR; fraction of CYLD variant bound to SPATA2 PUB against varying CYLD concentrations; kinetic and equilibrium fits; conditions: both partners purified
[4] = target: B1; assay: as above; conditions: both partners purified
[5] = target: T1, HOIP PUB domain (aa 1–184); assay: SEC-MALS; Superdex 200 column; purified SPATA2 (aa 7–356), HOIP PUB (aa 1–184) and CYLD alone and mixed; conditions: both partners purified
[6] = target: T2, HOIP PUB domain (HOIP 5–180, crystal …); assay: crystal structure; HOIP PUB domain with SPATA2 PIM peptide (aa 334–344), 2.7 Å, space group P43, two complexes in the asymmetric unit; conditions: both partners purified

B1
kcat/KM of CYLD for fluorescent Met1/Lys63-linked diUb substrates, with against without SPATA2 [1]: ~2 fold
stoichiometry N (SPATA2 (aa 7–356)): 1 CYLD per SPATA2 (2:2:2 with HOIP PUB)
stoichiometry N [2]: 2
stoichiometry N [3]: 1 CYLD USP per SPATA2 PUB (2:2)

B2
stoichiometry N [3]: 1 CYLD USP I790D per SPATA2 PUB (1:1)

B3
Kd (CYLD USP domain I790D): 518 nM
Kd [4]: 96 nM

B4
stoichiometry N [2]: 2

B5
stoichiometry N [5]: 1 SPATA2 per HOIP PUB (1:1)

B6
binding result [6]: binds
